# Laboratory results: patent US20210107983A1 (Boehringer Ingelheim, published 2021)
# T1: Cyno B7H6-His (cynomolgus monkey)
# T1 construct: also called CyB7H6; cyB7-H6
# T1 chain: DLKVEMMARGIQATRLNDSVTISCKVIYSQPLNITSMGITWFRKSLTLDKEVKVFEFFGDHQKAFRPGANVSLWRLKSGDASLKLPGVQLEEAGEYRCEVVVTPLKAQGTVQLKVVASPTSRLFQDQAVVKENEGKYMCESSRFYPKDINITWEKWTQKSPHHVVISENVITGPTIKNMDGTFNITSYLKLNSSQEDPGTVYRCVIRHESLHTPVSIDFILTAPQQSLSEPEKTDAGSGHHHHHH
# Assays:
# Cyno B7H6-His [1] = molecular target: T1, Cyno B7H6-His; assay: SPR, binder captured on Protein A/G, B7H6 analyte
# Method: (§1) To determine the affinity of human and cyno B7H6 and human B7H1 to B7H6/CD3 binding proteins, the experiment was performed on a Biacore™ 8K instrument (GE Healthcare Life Sciences). Briefly, the B7H6/CD3 binding protein was captured via Protein A/G. The running buffer for this experiment and all serial dilutions were prepared in HBS-EP+. The CM5 sensor chip was activated with an equal mixture of EDC/NHS across both flow cells for 420 s at a flow rate of 10 μL/min and immobilized with recombinant Protein A/G (50 μg/ml in 10 mM NaOAc, pH 4.5) across all flow cells for 420 s at a flow rate of 10 μL/min resulting in about 2500 RU of Protein A/G on the surface. The sensor chip was deactivated with 1M ethanolamine-HCl across all flow cells for 420 s at a flow rate of 10 μL/min.
# (§2) About 700 RU of the B7H6/CD3 binding protein was captured on flow cell 2 of the Protein A/G surface for 60 s at a flow rate of 10 μL/min. The analytes HuB7H6, CyB7H6 and HuB7H1 were injected across both flow cells over captured B7H6/CD3 binding protein for 300 s at a flow rate of 30 μL/min with a dissociation of 1200 s. The concentrations of HuB7H6 and CyB7H6 were 0 nM, 6.25 nM, 12.5 nM, 25 nM, 50 nM and 100 nM. The concentrations of HuB7H1 were 0 nM and 1 μM. The surface was regenerated by injecting 10 mM glycine-HCl, pH 1.5 for 20 s at a flow rate of 30 μL/min across both flow cells.
# (§3) The reference flow cell 1 (interactions with sensor surface) and blank (HBS-EP+ or 0 nM analyte) were subtracted from the raw data.
# [2] = molecular target: T2, trypsin inhibitor from Glycine max soybean (Glycine max (soybean)); assay: SPR, 1 µM binder over immobilized trypsin inhibitor
# T2 construct: unrelated negatively charged protein, amine-coupled to the chip
# T2 sequence (P01070 25-205): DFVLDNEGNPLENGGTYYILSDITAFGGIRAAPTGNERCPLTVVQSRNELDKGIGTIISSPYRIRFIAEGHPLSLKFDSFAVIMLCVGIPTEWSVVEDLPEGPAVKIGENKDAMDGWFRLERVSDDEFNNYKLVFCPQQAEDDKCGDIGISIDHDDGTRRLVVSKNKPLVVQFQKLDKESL
# Method: (§4) The experiment was performed on a Biacore® T200 SPR system (GE Healthcare Life Sciences). The dilution, surface preparation, and binding experiments were performed at 25° C. in 1×HBS-EP buffer prepared from 10×HBS-EP. The flow rate for both the immobilization protocol and binding experiment was at 5 μL/min.
# (§5) To prepare the surface for the non-specific binding experiment, chicken egg white lysozyme and trypsin inhibitor from Glycine max soybean were coupled manually to a Biacore® series S CM5 sensor chip (GE Healthcare sciences) with the surface density of 3000-5000 RU using the amine coupling kit according to the manufacture instructions. Samples were prepared at 1 μM in 1×HBS-EP buffer. The samples were injected over activated surfaces with a 10 min association and 15 min dissociation. The data was collected using Biacore® T200 Control Software version 2.0.1 and analyzed using Biacore® T200 Evaluation Software version 3.0 (GE Healthcare Life Sciences).
# Human CD3 E+G HuFc-6xHis = molecular target: T3, Human CD3 E+G HuFc-6xHis (human); assay: SPR, CD3E+G-hFc immobilized, binder analyte
# T3 construct: also called HuCD3E+G-hFc; huCD3
# T3 sequence (chain, as listed by the source limits assumed): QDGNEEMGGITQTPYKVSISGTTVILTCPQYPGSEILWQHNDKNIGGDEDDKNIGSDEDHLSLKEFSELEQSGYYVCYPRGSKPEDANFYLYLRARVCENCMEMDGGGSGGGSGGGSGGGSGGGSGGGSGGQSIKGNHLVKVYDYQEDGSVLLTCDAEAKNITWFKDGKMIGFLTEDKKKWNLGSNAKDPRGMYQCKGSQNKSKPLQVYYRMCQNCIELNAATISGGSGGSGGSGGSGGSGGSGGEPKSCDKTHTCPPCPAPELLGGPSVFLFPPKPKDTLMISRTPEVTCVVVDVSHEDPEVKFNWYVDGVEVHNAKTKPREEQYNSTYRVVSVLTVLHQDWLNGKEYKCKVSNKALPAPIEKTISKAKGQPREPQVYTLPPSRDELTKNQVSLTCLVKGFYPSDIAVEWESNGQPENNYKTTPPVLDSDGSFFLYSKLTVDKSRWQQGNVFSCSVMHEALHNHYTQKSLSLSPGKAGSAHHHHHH
# Method: To determine the affinity of the B7H6/CD3 binding protein to human and cyno CD3E+G-hFc, the experiment was performed on a Bio-Rad ProteOn™ XPR36 instrument. Briefly, HuCD3E+G-hFc and CyCD3E+G were amine-coupled on a ProteOn™ GLM sensor chip (Bio-Rad) and the B7H6/CD3 binding protein was flowed over the immobilized surface. The running buffer for this experiment and all serial dilutions were prepared in HBS-EP+. The GLM sensor chip was normalized according to Bio-Rad's recommendations. The sensor chip was activated with an equal mixture of EDC/s-NHS in the horizontal direction for 300 s at a flow rate of 30 μL/min HuCD3E+G-hFc was immobilized in the vertical direction at 0.4 μg/mL, 0.2 μg/mL and 0.1 μg/mL in 10 mM acetate pH 4.5 to L1, L2 and L3, respectively, for 300 s at a flow rate of 30 μL/min resulting in about 100 RU of HuCD3E+G-hFc on L1, 40 RU of HuCD3E+G-hFc on L2 and 0 RU of HuCD3E+G-hFc on L3. CyCD3E+G-hFc was immobilized in the vertical direction at 0.4 μg/mL, 0.2 μg/mL and 0.1 μg/mL in 10 mM acetate pH 4.5 to L4, L5 and L6, respectively, for 300 s at a flow rate of 30 μL/min resulting in about 385 RU of […], 170 RU of CyCD3E+G-hFc on L5 and 50 RU of CyCD3E+G-hFc on L6. The sensor chip was deactivated with 1M ethanolamine-HCl in the horizontal direction for 300 s at a flow rate of 30 μL/min.
# (§6) The B7H6/CD3 binding protein analyte was injected horizontally over the immobilized surface for 300 s at a flow rate of 30 μL/min with a dissociation of 600 s. The concentrations of the B7H6/CD3 binding protein used were 0 nM, 1.2 nM, 3.7 nM, 11.1 nM, 33.3 nM and 100 nM.
# The interspot (interactions with sensor surface) and blank (HBS-EP+ or 0 nM analyte) were subtracted from the raw data.
# Human B7H1 = molecular target: T4, Human B7H1 (human, UniProt Q9NZQ7 20-239); assay: SPR, binder captured on Protein A/G, HuB7H1 analyte
# T4 construct: also called HuB7H1; huB7-H1
# T4 sequence (Q9NZQ7 other isoform, or with tags, fused parts or gaps limits assumed): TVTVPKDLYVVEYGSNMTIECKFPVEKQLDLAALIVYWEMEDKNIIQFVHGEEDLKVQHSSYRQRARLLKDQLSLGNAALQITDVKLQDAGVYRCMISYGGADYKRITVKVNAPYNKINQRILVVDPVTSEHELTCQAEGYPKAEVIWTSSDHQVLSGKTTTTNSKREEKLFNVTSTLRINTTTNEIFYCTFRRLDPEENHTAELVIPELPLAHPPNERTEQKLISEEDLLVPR
# Method: as §1, §2, §3
# [3] = molecular target: T5, chicken egg white lysozyme (chicken, UniProt P00698 19-147); assay: SPR, 1 µM binder over immobilized lysozyme
# T5 construct: unrelated positively charged protein, amine-coupled to the chip; also called Lysozyme (positive)
# T5 sequence (P00698 19-147): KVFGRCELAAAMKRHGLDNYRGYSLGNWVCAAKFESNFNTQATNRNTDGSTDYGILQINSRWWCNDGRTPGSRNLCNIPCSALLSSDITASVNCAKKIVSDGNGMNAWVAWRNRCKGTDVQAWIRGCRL
# Method: as §4, §5
# Cyno B7H6-His [4] = molecular target: T1, Cyno B7H6-His; assay: ratio of SPR KDs cyno/human
# Method: as §2, §3, §6
Binder,Kd (Cyno B7H6-His [1]) [nM],Non-specific binding (RU) [2] [RU],Kd (Human CD3 E+G HuFc-6xHis) [nM],binding result (Human B7H1),Non-specific binding (RU) [3] [RU],cy/hu B7-H6 (Cyno B7H6-His [4])
"B7H6#13/CD3#1 (bispecific antibody, human IgG1, kappa, lambda, L234A L235A, scFab-Fc heterodimer, one B7H6 chain and one CD3 chain) chain 1: DIQMTQSPSSLSASVGDRVTITCKASQNVGKYVAWYQQKPGKAPKSLIYSASNRYDGVPSRFSGSGSGTDFTLTISSLQPEDFTTYYCQQYISYPLTFGAGTKLEIKRTVAAPSVFIFPPSDEQLKSGTASVVCLLNNFYPREAKVQWKVDNALQSGNSQESVTEQDSKDSTYSLSSTLTLSKADYEKHKVYACEVTHQGLSSPVTKSFNRGECGGGGSEGKSSGSGSESKSTEGKSSGSGSESKSTGGGGSQVQLVQSGAEVKKPGASVKVSCKASGYTFTSYWMNWMKQAPGQGLEWMGGIYLNGDSTDYNEKFKGRVTMTVDTSTSTVYMELSSLRSEDTAVYYCTRRGDYFGDFWGQGTLVTVSSASTKGPSVFPLAPSSKSTSGGTAALGCLVKDYFPEPVTVSWNSGALTSGVHTFPAVLQSSGLYSLSSVVTVPSSSLGTQTYICNVNHKPSNTKVDKRVEPKSCDKTHTCPPCPAPEAAGGPSVFLFPPKPKDTLMISRTPEVTCVVVDVSHEDPEVKFNWYVDGVEVHNAKTKPREEQYNSTYRVVSVLTVLHQDWLNGKEYKCKVSNKALPAPIEKTISKAKGQPREPQVYTLPPSREEMTKNQVSLWCLVKGFYPSDIAVEWESNGQPENNYKTTPPVLDSDGSFFLYSKLTVDKSRWQQGNVFSCSVMHEALHNHYTQKSLSLSPG chain 2: EAVVTQEPSLTVSPGGTVTLTCRSSTGAVTTSNYANWVQEKPGQLPRGLIGGTNKRAPWVPARFSGSLLGGKAALTLSGAQPEDEAEYFCALWYSNLWVFGGGTKLTVLGQPKAAPSVTLFPPSSEELQANKATLVCLISDFYPGAVKVAWKADGSPVNTGVETTTPSKQSNNKYAASSYLSLTPEQWKSHRSYSCQVTHEGSTVEKTVAPAECSGGGGSEGKSSGSGSESKSTEGKSSGSGSESKSTGGGGSEVQLVESGGGLVQPGGSLKLSCAASGFTFNTYAMNWVRQAPGKGLEWVARIRSKYNNYATYYADSVKDRFTISRDDSKNTAYLQMNNLKTEDTAVYYCVRHGNFGNSYVSWFAYWGQGTLVTVSAASTKGPSVFPLAPSSKSTSGGTAALGCLVKDYFPEPVTVSWNSGALTSGVHTFPAVLQSSGLYSLSSVVTVPSSSLGTQTYICNVNHKPSNTKVDKRVEPKSCDKTHTCPPCPAPEAAGGPSVFLFPPKPKDTLMISRTPEVTCVVVDVSHEDPEVKFNWYVDGVEVHNAKTKPREEQYNSTYRVVSVLTVLHQDWLNGKEYKCKVSNKALPAPIEKTISKAKGQPREPQVYTLPPSREEMTKNQVSLSCAVKGFYPSDIAVEWESNGQPENNYKTTPPVLDSDGSFFLVSKLTVDKSRWQQGNVFSCSVMHEALHNRFTQKSLSLSPG",4.6,30.6,4.1,no binding (tested: 1 µM),7.2,1.5
"B7H6#14/CD3#1 (bispecific antibody, human IgG1, kappa, lambda, L234A L235A, scFab-Fc heterodimer, one B7H6 chain and one CD3 chain) chain 1: DIQMTQSPSSLSASVGDRVTITCKASQNVGKYVAWYQQKPGKAPKSLIYSASNRYDGVPSRFSGSGSGTDFTLTISSLQPEDFATYFCQQYISYPLTFGAGTKLEIKRTVAAPSVFIFPPSDEQLKSGTASVVCLLNNFYPREAKVQWKVDNALQSGNSQESVTEQDSKDSTYSLSSTLTLSKADYEKHKVYACEVTHQGLSSPVTKSFNRGECGGGGSEGKSSGSGSESKSTEGKSSGSGSESKSTGGGGSQVQLVQSGAEVKKPGASVKVSCKASGYTFTNYWMNWMKQAPGQGLEWIGGIYLNGDSTDYNEKFKGKVTMTVDTSTSTVYMELSSLRSEDTAVYYCTRRGDYFGDFWGQGTLVTVSSASTKGPSVFPLAPSSKSTSGGTAALGCLVKDYFPEPVTVSWNSGALTSGVHTFPAVLQSSGLYSLSSVVTVPSSSLGTQTYICNVNHKPSNTKVDKRVEPKSCDKTHTCPPCPAPEAAGGPSVFLFPPKPKDTLMISRTPEVTCVVVDVSHEDPEVKFNWYVDGVEVHNAKTKPREEQYNSTYRVVSVLTVLHQDWLNGKEYKCKVSNKALPAPIEKTISKAKGQPREPQVYTLPPSREEMTKNQVSLWCLVKGFYPSDIAVEWESNGQPENNYKTTPPVLDSDGSFFLYSKLTVDKSRWQQGNVFSCSVMHEALHNHYTQKSLSLSPG chain 2: EAVVTQEPSLTVSPGGTVTLTCRSSTGAVTTSNYANWVQEKPGQLPRGLIGGTNKRAPWVPARFSGSLLGGKAALTLSGAQPEDEAEYFCALWYSNLWVFGGGTKLTVLGQPKAAPSVTLFPPSSEELQANKATLVCLISDFYPGAVKVAWKADGSPVNTGVETTTPSKQSNNKYAASSYLSLTPEQWKSHRSYSCQVTHEGSTVEKTVAPAECSGGGGSEGKSSGSGSESKSTEGKSSGSGSESKSTGGGGSEVQLVESGGGLVQPGGSLKLSCAASGFTFNTYAMNWVRQAPGKGLEWVARIRSKYNNYATYYADSVKDRFTISRDDSKNTAYLQMNNLKTEDTAVYYCVRHGNFGNSYVSWFAYWGQGTLVTVSAASTKGPSVFPLAPSSKSTSGGTAALGCLVKDYFPEPVTVSWNSGALTSGVHTFPAVLQSSGLYSLSSVVTVPSSSLGTQTYICNVNHKPSNTKVDKRVEPKSCDKTHTCPPCPAPEAAGGPSVFLFPPKPKDTLMISRTPEVTCVVVDVSHEDPEVKFNWYVDGVEVHNAKTKPREEQYNSTYRVVSVLTVLHQDWLNGKEYKCKVSNKALPAPIEKTISKAKGQPREPQVYTLPPSREEMTKNQVSLSCAVKGFYPSDIAVEWESNGQPENNYKTTPPVLDSDGSFFLVSKLTVDKSRWQQGNVFSCSVMHEALHNRFTQKSLSLSPG",0.6,32.7,4.2,no binding (tested: 1 µM),8.1,5.9
